Substrate in the series: N=C(N)NCCCC(NC(=O)c1ccccc1)C(=O)Nc1ccc([N+](=O)[O-])cc1
Nature of the series: purified protein. The note with it: 20 mM TRIS-HCl, 10 mM CaCl2, pH 8.0, 24°C.

B1: AaSPVII (Aedes aegypti) (protein)
chain: VVGGYEVDVKDIPFQVSLQNTYGHFCGGSIISERWVLTAGHCASPRDHGLKVRVGSSQHASGGQLYKVAKIHQHPQYNPSTIDYDFCLLELEKAITFSEVSQSVDLPKLNDPVQDGTLLQVSGWGYTQNPSESRDVLRATNVPAVSQKECSRAYQGTNAVTDRMVCAGYKEGGKDSCQGDSGGPLVEGNTLVGVVSWGVGCAQAGYPGVYSRVAAVRDWVAEVSGV
For orientation: Km means the substrate concentration at which the rate is half of its maximum. The kcat is the maximal rate divided by the concentration of active sites. As usually defined, the kcat/Km is the second-order rate constant that governs catalysis at low substrate concentration. Regarding B1, where the note is “50 nM enzyme”, the Km is 19.2 ± 1.0 µM, the kcat was determined as 0.35 s⁻¹ and the kcat/Km is 18500 M⁻¹ s⁻¹.

B2: AaET (Aedes aegypti) (protein)
chain: IVGGFQIDIAEVPHQVSLQRSGRHFCGGSIISPRWVLTAAHCTTNTDPAAYTIRAGSTDRTNGGIIVKVKSVIPHPQYNGDTYNYDFSLLELDESIGFSRSIEAIALPEASETVADGAMCTVSGWGDTKNVFEMNTLLRAVNVPSYNQAECAAALVNVVPVTEQMICAGYAAGGKDSCQGDSGGPLVSGDKLVGVVSWGKGCALPNLPGVYARVSTVRQWIREVSEV
As for B2, under “20 nM enzyme”, the Km is 63.0 ± 1.3 µM, the kcat is 2.03 s⁻¹ and the kcat/Km was 32300 M⁻¹ s⁻¹.

Source of the values: PMC3162888.
